Test results: paper doi:10.1101/2024.08.08.606885

Experiments:
Assay in all cases: BLI; […]; 10x kinetics buffer, […]; global fit, 1:1 binding model; […]
[1] = target: SARS-CoV-2 BQ.1.1 RBD (SARS-CoV-2) (UniProt P0DTC2)
[2] = target: SARS-CoV-2 Wuhan-Hu-1 RBD (SARS-CoV-2) (UniProt P0DTC2)
[3] = target: SARS-CoV-2 BA.2.12.1 RBD (SARS-CoV-2) (UniProt P0DTC2)
[4] = target: SARS-CoV-2 BA.2.75.2 RBD (SARS-CoV-2) (UniProt P0DTC2)
[5] = target: SARS-CoV-2 XBB.1.5 RBD (SARS-CoV-2) (UniProt P0DTC2)
[6] = target: SARS-CoV-2 Delta RBD (SARS-CoV-2) (UniProt P0DTC2)
[7] = target: SARS-CoV-2 BA.5 RBD (SARS-CoV-2) (UniProt P0DTC2)
[8] = target: SARS-CoV-2 BA.2.86 RBD (SARS-CoV-2) (UniProt P0DTC2)

Which results are given for “TRI2-2 homotrimeric miniprotein inhibitor (designed binder)”?
Kd [1]: 0.21 nM; koff [1]: 3.36e-05 s⁻¹; kon [1]: 160000 M⁻¹ s⁻¹; Kd [2]: 0.00121 nM; koff [2]: 3.46e-07 s⁻¹; kon [2]: 286000 M⁻¹ s⁻¹; Kd [3]: 0.851 nM; koff [3]: 0.000117 s⁻¹; kon [3]: 137000 M⁻¹ s⁻¹; Kd [4]: 0.542 nM; koff [4]: 8.93e-05 s⁻¹; kon [4]: 165000 M⁻¹ s⁻¹; Kd [5]: 0.658 nM; koff [5]: 0.000105 s⁻¹; kon [5]: 160000 M⁻¹ s⁻¹; Kd [6]: 0.00114 nM; koff [6]: 2.95e-07 s⁻¹; kon [6]: 259000 M⁻¹ s⁻¹; Kd [7]: 0.0306 nM; koff [7]: 9.92e-06 s⁻¹; kon [7]: 325000 M⁻¹ s⁻¹; Kd [8]: 0.388 nM; koff [8]: 0.000131 s⁻¹; kon [8]: 339000 M⁻¹ s⁻¹
